# From US20150044213A1 (published 2015)
# Several values for one entry are separate records, joined by “and”; a condition that tells them apart may be missing. Equal values may be shown once.
# B1: ESBA903 (scFv)
# scFv: EIVMTQSPSTLSASVGDRVIITCQASEIIHSWLAWYQQKPGKAPKLLIYLASTLASGVPSRFSGSGSGAEFTLTISSLQPDDFATYYCQNVYLASTNGANFGQGTKLTVLGGGGGSGGGGSGGGGSGGGGSEVQLVESGGGLVQPGGSLRLSCTASGFSLTDYYYMTWVRQAPGKGLEWVGFIDPDDDPYYATWAKGRFTISRDTSKNTVYLQMNSLRAEDTAVYYCAGGDHNSGWGLDIWGQGTLVTVSS
# notes: Monomeric scFv (about 25 kDa); same protein in all samples; also called humanized antibody-fragment ESBA903; humanized VEGF-antibody fragment ESBA903
# Assays:
# [1] = target: T1, Recombinant human VEGF165 (human, UniProt P15692-4 27-191); assay: SPR (BIAcore T100), VEGF165 on CM4 chip, 1:1 Langmuir model; scFv released from hexPLA formulation, release sample at 3 d
# T1 construct: Immobilized on a CM4 sensor chip by amine coupling (about 500 RU)
# Description: (§1) The affinity of the released ESBA903 monomer toward human VEGF was measured using surface plasmon resonance analysis in comparison to a fresh ESBA903 reference. For evaluation of the binding kinetics, surface plasmon resonance measurements using a BIAcore T100 were performed. Carboxymethylated dextran biosensor chips (CM4, GE HealthCare, Uppsala, Sweden) were activated with N-ethyl-N′-(3-dimethylaminopropyl) carbodiimide hydrochloride and N-hydroxysuccinimide according to the supplier's instructions. Recombinant human VEGF₁₆₅ (PeproTech EC Ltd., London, UK) was immobilized on a CM4 sensor chip using a standard amine-coupling procedure to achieve a response of approximately 500 resonance units. 2-fold serial dilutions (2.5-20 nM) of ESBA903 standard and formulation samples in HBS-EP buffer (10 mM HEPES, 150 mM NaCl, 3 mM EDTA, and 0.05% surfactant P20, pH 7.4) were injected into the flow cells at a flow rate of 30 μL/min for 5 minutes. Dissociation of the anti-VEGF scFv from the VEGF on the CM4 chip was allowed to proceed for 10 minutes. After each injection cycle, surfaces were regenerated with 2 injections of 100 mM NaOH.
# (§2) The apparent dissociation (kd) and association (kₐ) rate constants and the apparent dissociation equilibrium constant (KD) were calculated with BIAcore T100 evaluation Software version 2.0.1 using a one-to-one Langmuir binding model (Biacore Inc., Uppsala, Sweden).
# [2] = target: T1, Recombinant human VEGF165; assay: SPR (BIAcore T100), VEGF165 on CM4 chip, 1:1 Langmuir model; scFv released from hexPLA formulation, release sample at 4 w
# Description: as §1, §2
# [3] = target: T1, Recombinant human VEGF165; assay: SPR (BIAcore T100), VEGF165 on CM4 chip, 1:1 Langmuir model; scFv released from hexPLA formulation, release sample at 14 w
# Description: as §1, §2
# [4] = target: T1, Recombinant human VEGF165; assay: SPR (BIAcore T100), VEGF165 amine-coupled on CM4 chip, scFv 2.5-20 nM injected, 1:1 Langmuir model; fresh reference, time 0
# Description: as §1, §2
# T1 sequence (P15692 other isoform, or with tags, fused parts or gaps limits assumed): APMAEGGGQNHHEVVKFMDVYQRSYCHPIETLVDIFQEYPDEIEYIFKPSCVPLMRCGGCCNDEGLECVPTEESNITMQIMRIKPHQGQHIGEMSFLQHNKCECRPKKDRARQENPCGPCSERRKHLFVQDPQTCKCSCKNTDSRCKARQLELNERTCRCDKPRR
binder,measurement,setting,value
B1,Kd,[1],0.0594 nM and 0.0685 nM and 0.0489 nM
same,koff,[1],2.77e-05 s⁻¹ and 3e-05 s⁻¹ and 2.59e-05 s⁻¹
same,kon,[1],465000 M⁻¹ s⁻¹ and 439000 M⁻¹ s⁻¹ and 529000 M⁻¹ s⁻¹
same,Kd,[2],0.0643 nM and 0.0521 nM and 0.0552 nM
same,koff,[2],3.56e-05 s⁻¹ and 3.03e-05 s⁻¹ and 2.34e-05 s⁻¹
same,kon,[2],554000 M⁻¹ s⁻¹ and 582000 M⁻¹ s⁻¹ and 424000 M⁻¹ s⁻¹
same,Kd,[3],0.0762 nM and 0.066 nM and 0.0826 nM
same,koff,[3],3.11e-05 s⁻¹ and 2.78e-05 s⁻¹ and 3.37e-05 s⁻¹
same,kon,[3],407000 M⁻¹ s⁻¹ and 421000 M⁻¹ s⁻¹ and 408000 M⁻¹ s⁻¹
same,Kd,[4],0.0256 nM
same,koff,[4],2.45e-05 s⁻¹
same,kon,[4],956000 M⁻¹ s⁻¹
